What was measured:
[1] = target: T1, mouse LAG-3 overexpressed on HEK293E cells (mouse, UniProt Q61790 24-521); assay: flow cytometry, HEK293E cells overexpressing mouse LAG-3
T1 construct: whole, on cells; also called HEK293E-mLAG3; mLAG3 (Mouse)
T1 sequence (looked up): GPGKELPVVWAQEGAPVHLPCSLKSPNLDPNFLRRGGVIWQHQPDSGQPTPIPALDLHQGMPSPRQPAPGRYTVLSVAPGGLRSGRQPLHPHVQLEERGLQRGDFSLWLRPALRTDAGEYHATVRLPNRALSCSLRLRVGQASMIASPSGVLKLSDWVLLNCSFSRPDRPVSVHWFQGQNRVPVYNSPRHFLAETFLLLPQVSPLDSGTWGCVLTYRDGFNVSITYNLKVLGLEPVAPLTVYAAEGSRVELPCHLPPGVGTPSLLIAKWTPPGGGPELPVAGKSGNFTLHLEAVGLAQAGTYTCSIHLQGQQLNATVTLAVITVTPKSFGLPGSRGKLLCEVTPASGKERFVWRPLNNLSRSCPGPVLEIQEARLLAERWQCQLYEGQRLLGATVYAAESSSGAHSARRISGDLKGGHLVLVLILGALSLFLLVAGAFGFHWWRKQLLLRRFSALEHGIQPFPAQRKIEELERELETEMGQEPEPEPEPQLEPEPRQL
Experimental: (§1) After that, the cells were washed three times with PBS containing 2% FBS and then subjected to the reaction for 30 minutes at 4° C. with anti-human IgG antibody (#FI-3000, Vectorlabs) linked with FITC fluorescent. The cells were washed by the same washing process as above followed by suspension in 0.2 ml PBS containing 2% FBS. The cells were then analyzed by FACSCanto II flow cytometer.

[2] = target: T2, monkey (Rhesus monkey) LAG-3 overexpressed on HEK293E cells (Rhesus monkey, UniProt A0A5F8A874 23-533); assay: flow cytometry, HEK293E cells overexpressing monkey LAG-3
T2 construct: whole, on cells; also called HEK293E-MrhLAG3; MrhLAG3 (Rhesus Monkey)
T2 sequence: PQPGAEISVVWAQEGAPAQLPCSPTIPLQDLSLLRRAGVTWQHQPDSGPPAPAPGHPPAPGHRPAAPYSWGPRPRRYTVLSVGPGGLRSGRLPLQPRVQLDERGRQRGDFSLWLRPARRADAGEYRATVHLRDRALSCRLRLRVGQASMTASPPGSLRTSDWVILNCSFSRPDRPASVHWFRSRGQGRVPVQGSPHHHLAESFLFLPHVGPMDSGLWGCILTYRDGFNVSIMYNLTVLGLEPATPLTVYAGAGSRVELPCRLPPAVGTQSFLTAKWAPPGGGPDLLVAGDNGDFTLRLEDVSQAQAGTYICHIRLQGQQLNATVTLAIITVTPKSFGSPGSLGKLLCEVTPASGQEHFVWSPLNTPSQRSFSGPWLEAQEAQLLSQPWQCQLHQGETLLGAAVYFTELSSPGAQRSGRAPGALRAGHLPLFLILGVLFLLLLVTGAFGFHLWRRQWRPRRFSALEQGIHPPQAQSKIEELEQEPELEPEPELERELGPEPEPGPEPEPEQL
Experimental: as §1

[3] = target: T3, recombinant monkey LAG-3 fused with mouse Fc (MrhLAG-3-mFc) (monkey); assay: BLI (Octet QKe), 1:1 global fit
T3 construct: also called monkey LAG-3 antigen
Experimental: (§2) After stabilization for 10 minutes in a buffer (#18-1042, Fortebio Inc.), immobilized antigen or antibody was washed out for 5 minutes with the buffer. The antibody or antigen desired for binding was prepared at different concentrations (0.94-60 nM) in a 96-well plate (#655209, Greiner Bio-One, USA) and subjected to the association reaction for 10 minutes followed by dissociation reaction for 10 minutes or 30 minutes.

[4] = target: T4, recombinant human LAG-3 extracellular domain fused with mouse Fc (hLAG-3-mFc) (human, UniProt P18627 29-450); assay: BLI (Octet QKe), 1:1 global fit
T4 construct: range 29-450; Made in HEK293F cells; also called human LAG-3 antigen; wild-type (WT) LAG-3; not shown: mouse Fc (mFc) at the carboxy terminal
T4 sequence (looked up): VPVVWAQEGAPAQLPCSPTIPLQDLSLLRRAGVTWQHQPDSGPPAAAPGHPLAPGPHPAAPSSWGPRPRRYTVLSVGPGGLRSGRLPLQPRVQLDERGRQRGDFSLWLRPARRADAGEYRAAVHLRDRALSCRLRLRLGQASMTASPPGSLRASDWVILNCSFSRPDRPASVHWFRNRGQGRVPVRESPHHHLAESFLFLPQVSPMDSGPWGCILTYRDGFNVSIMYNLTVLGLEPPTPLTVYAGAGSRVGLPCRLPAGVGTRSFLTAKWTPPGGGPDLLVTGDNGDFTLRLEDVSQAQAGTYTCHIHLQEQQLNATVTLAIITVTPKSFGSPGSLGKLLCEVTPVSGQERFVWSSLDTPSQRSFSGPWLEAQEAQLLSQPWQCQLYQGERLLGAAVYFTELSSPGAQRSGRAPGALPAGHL
Experimental: as §2

[5] = target: T5, recombinant mouse LAG-3 fused with mouse Fc (mLAG-Fc) (mouse, UniProt Q61790 24-442, limits assumed); assay: BLI (Octet QKe), 1:1 global fit
T5 construct: also called mouse LAG-3 antigen; not shown: mouse Fc (mFc) at the carboxy terminal
T5 sequence (looked up): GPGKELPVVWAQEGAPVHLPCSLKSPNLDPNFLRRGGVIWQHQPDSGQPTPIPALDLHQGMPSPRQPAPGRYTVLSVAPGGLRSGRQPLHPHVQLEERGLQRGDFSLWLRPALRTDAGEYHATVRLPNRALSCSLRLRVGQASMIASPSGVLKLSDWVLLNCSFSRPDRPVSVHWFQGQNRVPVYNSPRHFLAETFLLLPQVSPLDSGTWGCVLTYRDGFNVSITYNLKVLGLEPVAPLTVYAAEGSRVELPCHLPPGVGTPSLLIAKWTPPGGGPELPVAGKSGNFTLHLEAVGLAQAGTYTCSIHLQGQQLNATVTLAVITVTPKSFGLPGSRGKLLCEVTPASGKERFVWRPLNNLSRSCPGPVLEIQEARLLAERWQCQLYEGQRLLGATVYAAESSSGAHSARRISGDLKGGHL
Experimental: as §2

[6] = target: T3, recombinant monkey LAG-3 fused with …; assay: Octet biolayer interferometry, 1:1 global fit
Experimental: as §2

[7] = target: T4, recombinant human LAG-3 extracellular …; assay: Octet biolayer interferometry, 1:1 global fit
Experimental: as §2

[8] = target: T5, recombinant mouse LAG-3 fused with …; assay: Octet biolayer interferometry, 1:1 global fit
Experimental: as §2

EC50 [1]: 1.5 µg/mL | EC50 [2]: 0.246 µg/mL | Kd [3]: 328 pM | Kd [4]: 91.8 pM | Kd [5]: 596 pM | koff [6]: 6.08e-05 s⁻¹ | kon [6]: 185000 M⁻¹ s⁻¹ | koff [7]: 7.23e-05 s⁻¹ | kon [7]: 788000 M⁻¹ s⁻¹ | koff [8]: 0.000256 s⁻¹ | kon [8]: 430000 M⁻¹ s⁻¹
B1: human anti-LAG-3 monoclonal antibody 1E09 (antibody, V domains shown)
VH: QVQLVQSGGDLVKPGGSLRLSCAASGFSFSDHYMNWIRQAPGKGLEWVAYIDTSATYIYYADSVKGRFTISRDNAKNSLYLQMNSLRAEDTAVYYCARDNWGSLDYWGQGALVTVSS
VL: DIQMTQSPSSLSPSVGDRVTITCQASQEISIYLNWYQQKPGKAPKLLIYDASNLETGVPSRFSGSGSGTDFTLTISSLQPEDFATYYCQQTYITPYTFGQGTKLDIK
notes: Tested as full IgG converted from scFv; also called LAG-3-1E09; Parent (1E09)

Source: US20210238283A1 (Y BIOLOGICS, published 2021)
